Measurements as given in the supplement of paper PMC12855868.

B1: library; numbered along this chain (parent)
chain: MAAAGGARLLRAASAVLGGPAGRWLHHAGSRAGSSGLLRNRGPGGSAEASRSLSVSARARSSSEDKITVHFINRDGETLTTKGKVGDSLLDVVVENNLDIDGFGACEGTLACSTCHLIFEDHIYEKLDAITDEENDMLDLAYGLTDRSRLGCQICLTKSMDNMTVRVPETVADARQSIDVGKTS

Variants of: B1
Assay: scaled log2 fold change in cell abundance, elesclomol vs control (0 = silent mean, 1 = nonsense mean) (scaled log2 ratio); higher = higher viability under elesclomol (loss of FDX1 cuproptosis function)
Settings: glucose 10 mM
Procedure: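 Deep mutational scan of full-length human FDX1: a pooled saturation-mutagenesis ORF library (every residue 2-184 mutated to all 19 amino acids plus stop, and silent codons where available) was expressed by lentivirus in FDX1-knockout ABC1 (14 days) or HEK293T (11 days) cells grown with elesclomol (ES) or DMSO control. Variant abundance came from ORF sequencing. The log2 fold change (ES vs control, mean of duplicates) was centred on the silent-variant mean (0) and scaled to the nonsense-variant mean (1). Higher values mean greater viability under ES, i.e. loss of FDX1 function in cuproptosis.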

[1] = with ABC1 FDX1 KO, elesclomol 5 nM, 14 days
[2] = with HEK293T FDX1 KO, elesclomol 40 nM, 11 days
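Further: variant abundance is its share of total variant reads in each endpoint sample, from next-generation sequencing of the integrated ORF PCR-amplified out of genomic DNA.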

Row | Variant | scaled log2 fold change [1] | scaled log2 fold change [2]
1 | R11V | 0.177 | -0.49
2 | G83K | 0.72 | 0.427
3 | A57S | 0.247 | 0.0851
4 | P20Y | 0.0978 | 0.987
5 | G76I | 0.0447 | -0.0276
6 | L90T | -0.871 | -0.404
7 | L90V | -0.0886 | -0.208
8 | L156G | 0.709 | 0.904
9 | C106N | 1.18 | 0.906
10 | G151P | 1.03 | 1.12
11 | T164N | 0.361 | 1.04
12 | T170V | -0.0936 | -0.713
13 | T170A | -0.0897 | -0.0909
14 | G86H | 0.239 | 0.453
15 | D132R | -0.373 | -0.177
16 | T81C | 0.0149 | -0.28
17 | I100E | 0.167 | 0.099
18 | A21V | 0.197 | –
19 | W24H | 0.42 | -0.545
20 | F103K | 1.2 | 1.14
21 | H122P | -0.0781 | -0.564
22 | H122K | -0.152 | -0.221
23 | S14L | -0.903 | 0.688
24 | S14R | 0.602 | –
25 | S14Y | 0.283 | 0.523
26 | F71A | 0.63 | 0.751
27 | N96I | 0.329 | 0.221
28 | H27C | 0.145 | -0.412
29 | H27F | 0.196 | 0.363
30 | S62K | 0.104 | 1.13
